Source: PMC4076583 (The Journal of Experimental Medicine, 2014)

B1: mouse 4-1BB.Fc, full-length extracellular 4-1BB (CRD1–4, amino acids 24–187) fused to human IgG1 Fc (Fc fusion, UniProt P20334 24-187, looked up)
chain: VQNSCDNCQPGTFCRKYNPVCKSCPPSTFSSIGGQPNCNICRVCAGYFRFKKFCSSTHNAECECIEGFHCLGPQCTRCEKDCRPGQELTKQGCKTCSLGTFNDQNGTGVCRPWTNCSLDGRSVLKTGTTEKDVVCGPPVVSFSPSTTISVTPEGGPGGHSLQVL
B2: human 4-1BB.Fc CRD4 mutant (amino acids 119–186) (Fc fusion, UniProt Q07011 119-186, looked up)
chain: DCCFGTFNDQKRGICRPWTNCSLDGKSVLVNGTKERDVVCGPSPADLSPGASSVTPPAPAREPGHSPQ
B3: mouse 4-1BB.Fc CRD4 mutant (amino acids 118–187) (Fc fusion, UniProt P20334 118-187, looked up)
chain: TCSLGTFNDQNGTGVCRPWTNCSLDGRSVLKTGTTEKDVVCGPPVVSFSPSTTISVTPEGGPGGHSLQVL

How the values were obtained:
[1] = target: recombinant mouse Galectin-9 (mouse, UniProt O08573 1-353); test: SPR
[2] = target: recombinant human Galectin-9 (human, UniProt O00182 1-355); test: SPR
Sequence of recombinant human Galectin-9 (O00182 whole entry): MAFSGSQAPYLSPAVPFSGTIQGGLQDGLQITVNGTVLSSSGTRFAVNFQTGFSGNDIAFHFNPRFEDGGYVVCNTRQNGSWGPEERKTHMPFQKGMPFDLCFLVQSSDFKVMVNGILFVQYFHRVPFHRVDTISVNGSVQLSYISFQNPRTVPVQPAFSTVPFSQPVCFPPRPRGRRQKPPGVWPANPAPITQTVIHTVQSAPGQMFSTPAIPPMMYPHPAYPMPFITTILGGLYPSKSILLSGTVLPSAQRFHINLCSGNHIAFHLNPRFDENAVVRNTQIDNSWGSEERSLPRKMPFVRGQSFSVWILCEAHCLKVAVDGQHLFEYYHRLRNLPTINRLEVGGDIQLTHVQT

Sequence of recombinant mouse Galectin-9 (O08573 whole entry): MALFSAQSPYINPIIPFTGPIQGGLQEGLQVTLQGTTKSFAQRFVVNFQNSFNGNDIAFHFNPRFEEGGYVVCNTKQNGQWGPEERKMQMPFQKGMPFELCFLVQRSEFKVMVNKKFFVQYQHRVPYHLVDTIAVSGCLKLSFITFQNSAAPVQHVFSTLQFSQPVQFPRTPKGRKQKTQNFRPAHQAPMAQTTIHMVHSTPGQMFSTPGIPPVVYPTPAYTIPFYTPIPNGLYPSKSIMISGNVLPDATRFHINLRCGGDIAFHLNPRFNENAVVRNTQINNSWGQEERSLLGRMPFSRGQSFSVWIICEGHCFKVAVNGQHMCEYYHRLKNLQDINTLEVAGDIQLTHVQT

Row | Binder | Kd [1] | Kd [2]
1 | B1 | ~11 nM | 
2 | B2 |  | ~35 nM
3 | B3 | ~18 nM | 
